Test: mouse vaccination, whole-cell ELISA for CPS14-specific IgG
Details: glycan gained; control: unglycosylated ComP

Substance: ComP: CPS14-ComP bioconjugate
- other: immunogenicity: increases

— publication PMC6385209
